# From patent US20090208538A1 (ROCKEFELLER UNIVERSITY, published 2009)
# Tests used:
# HLA-A*0101 [1] = biological target: HLA-A*0101 (human); assay: iTopia net score
# HLA-A*0101 [2] = biological target: HLA-A*0101 (human); assay: iTopia affinity
# HLA-A*0101 [3] = biological target: HLA-A*0101 (human); assay: iTopia off-rate
# HLA-A*2402 [4] = biological target: HLA-A*2402 (human); assay: iTopia net score;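 further: iScore from iTopia software combining peptide binding, affinity over a dilution series and off-rate after warming to body temperature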
# HLA-B*0801 [5] = biological target: HLA-B*0801 (human); assay: iTopia affinity
# HLA-A*1501 [6] = biological target: T1, HLA-A*1501 (human); assay: iTopia affinity
# T1 construct: possibly meant as HLA-B*1501
# HLA-B*0702 [7] = biological target: HLA-B*0702 (human); assay: iTopia affinity
# HLA-B*0702 [8] = biological target: HLA-B*0702 (human); assay: iTopia net score
# HLA-A*2402 [9] = biological target: HLA-A*2402 (human); assay: iTopia off-rate
# HLA-B*0702 [10] = biological target: HLA-B*0702 (human); assay: iTopia off-rate
# HLA-A*2402 [11] = biological target: HLA-A*2402 (human); assay: iTopia affinity;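 further: peptide binding to HLA-A*2402 measured in iTopia kit format across eight serial peptide dilutions, ED50 derived from the resulting titration curve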
# HLA-B*0801 [12] = biological target: HLA-B*0801 (human); assay: iTopia net score
# HLA-A*1501 [13] = biological target: T1, HLA-A*1501; assay: iTopia net score
# HLA-A*0201 [14] = biological target: T2, HLA-A*0201 (human); assay: iTopia net score;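 further: combined score from peptide binding, ED₅₀ and half-life of peptide complexes with plate-bound HLA-A2 molecules, computed by a proprietary formula in iTopia software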
# T2 construct: also called HLA-A2.1; HLA A2.1
# HLA-A*0201 [15] = biological target: T2, HLA-A*0201; assay: iTopia binding;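 further: each peptide tested for binding to HLA-A2 molecules immobilized on plates, using a commercial screening kit run per its supplied protocol and reagents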
# HLA-A*0201 [16] = biological target: T2, HLA-A*0201; assay: iTopia affinity;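 further: peptide affinity for plate-bound HLA-A2 molecules (iTopia system), with ED50 derived from an eight-point serial peptide dilution series run under binding assay conditions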
# HLA-A*0201 [17] = biological target: T2, HLA-A*0201; assay: iTopia off-rate;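 further: Half-life of peptide complexes with plate-bound HLA-A2, peptides loaded 18 h at 21 C, washed, then held at 37 C over several time points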
# [18] = biological target: HLA-A2.1/cdr2(290-298) complex (human); assay: cell-based or functional assay
# HLA-A*1101 [19] = biological target: HLA-A*1101 (human); assay: iTopia off-rate
# HLA-A*1101 [20] = biological target: HLA-A*1101 (human); assay: iTopia net score
# HLA-A*1101 [21] = biological target: HLA-A*1101 (human); assay: iTopia affinity;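 further: affinity derived from a titration of eight serial peptide dilutions, each run under the same conditions as the binding screen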
# HLA-A*0301 [22] = biological target: HLA-A*0301 (human); assay: iTopia net score
# HLA-A*0301 [23] = biological target: HLA-A*0301 (human); assay: iTopia off-rate
# HLA-A*0301 [24] = biological target: HLA-A*0301 (human); assay: iTopia affinity
binder,measurement,setting,value
DTQYSALKV [cdr2 350-358 DTQYSALKV],iScore,HLA-A*0101 [1],0.04
same,ED50,HLA-A*0101 [2],49 µM
same,t1/2,HLA-A*0101 [3],0.4
AVKQRGISL [cdr2 337-345 AVKQRGISL],iScore,HLA-A*2402 [4],0.13
same,ED50,HLA-B*0801 [5],22 µM
same,ED50,HLA-A*1501 [6],15 µM
same,ED50,HLA-B*0702 [7],2.4 µM
same,iScore,HLA-B*0702 [8],0.293
same,t1/2,HLA-A*2402 [9],1.6
same,t1/2,HLA-B*0702 [10],1.18
same,ED50,HLA-A*2402 [11],20 µM
same,iScore,HLA-B*0801 [12],0.139
same,iScore,HLA-A*1501 [13],0.16
LLEEMFLTV [cdr2 290-298 LLEEMFLTV],iScore,HLA-A*0201 [14],0.815
same,binding vs positive control,HLA-A*0201 [15],> 30%
same,ED50,HLA-A*0201 [16],0.6 µM
same,iScore,HLA-A*0101 [1],0.063
same,ED50,HLA-A*0101 [2],21 µM
same,t1/2,HLA-A*0201 [17],5.9
same,t1/2,HLA-A*0101 [3],0.27
LLHEVDTQY [cdr2 345-353 LLHEVDTQY],iScore,HLA-A*0201 [14],0.204
same,binding vs positive control,HLA-A*0201 [15],> 30%
same,ED50,HLA-A*0201 [16],7 µM
same,ED50,HLA-A*1501 [6],39 µM
same,iScore,HLA-A*1501 [13],0.121
same,t1/2,HLA-A*0201 [17],3.5
"cdr2-specific murine T cell receptor of CTL clones 11 and 12 (TCR, V domains shown) V domain 1: QQQVRQSPQSLTVWEGGTTVLTCSYEDSTFNYFPWYQQFPGEGPALLISILSVSDKKEDGRFTTFFNKREKKLSLHIIDSQPGDSATYFCAASGASGGSNAKLTFGKGTKLSVKS V domain 2: DSGVVQSPRHIIKEKGGRSVLTCIPISGHSNVVWYQQTLGKELKFLIQHYEKVERDKGFLPSRFSVQQFDDYHSEMNMSALELEDSAMYFCASSLGGWAEQFFGPGTRLTVLE","IFN-γ release, ELISA",[18],20 fold above background
ASQQKILSL [cdr2 107-113 ASQQKILSL],iScore,HLA-A*0201 [14],0.174
same,binding vs positive control,HLA-A*0201 [15],> 30%
same,ED50,HLA-A*0201 [16],8 µM
same,t1/2,HLA-A*1101 [19],2.45
same,ED50,HLA-A*1501 [6],24 µM
same,iScore,HLA-A*1101 [20],0.19
same,ED50,HLA-A*1101 [21],20 µM
same,iScore,HLA-A*1501 [13],0.092
same,t1/2,HLA-A*0201 [17],3.4
RQHFVYDHV [cdr2 168-176 RQHFVYDHV],iScore,HLA-A*0201 [14],0.304
same,binding vs positive control,HLA-A*0201 [15],> 30%
same,ED50,HLA-A*0201 [16],6 µM
same,ED50,HLA-A*1501 [6],39 µM
same,iScore,HLA-A*1501 [13],0.088
same,t1/2,HLA-A*0201 [17],3.7
KQRGISLLH [cdr2 339-347 KQRGISLLH],iScore,HLA-A*2402 [4],0.184
same,t1/2,HLA-A*1101 [19],0.44
same,ED50,HLA-A*1501 [6],22 µM
same,iScore,HLA-A*1101 [20],0.089
same,t1/2,HLA-A*2402 [9],1.52
same,ED50,HLA-A*2402 [11],6.9 µM
same,ED50,HLA-A*1101 [21],22 µM
same,iScore,HLA-A*1501 [13],0.163
SFACLKELY [cdr2 157-165 SFACLKELY],iScore,HLA-A*2402 [4],0.157
same,ED50,HLA-A*1501 [6],5.3 µM
same,iScore,HLA-A*0101 [1],0.137
same,ED50,HLA-A*0101 [2],6.9 µM
same,t1/2,HLA-A*2402 [9],0.5
same,ED50,HLA-A*2402 [11],1.4 µM
same,iScore,HLA-A*1501 [13],0.132
same,t1/2,HLA-A*0101 [3],0.97
EIDEQRTKY [cdr2 439-447 EIDEQRTKY],iScore,HLA-A*0101 [1],0.107
same,ED50,HLA-A*0101 [2],31 µM
same,t1/2,HLA-A*0101 [3],1.26
AVQTSRAAA [cdr2 378-386 AVQTSRAAA],ED50,HLA-A*1501 [6],51 µM
same,ED50,HLA-B*0702 [7],11 µM
same,iScore,HLA-B*0702 [8],0.153
same,t1/2,HLA-B*0702 [10],0.9
same,iScore,HLA-A*1501 [13],0.062
TQYSALKVK [cdr2 351-359 TQYSALKVK],iScore,HLA-A*0301 [22],0.27
same,t1/2,HLA-A*1101 [19],0.76
same,ED50,HLA-A*1501 [6],7.6 µM
same,iScore,HLA-A*1101 [20],0.276
same,t1/2,HLA-A*0301 [23],1.48
same,ED50,HLA-A*0301 [24],7.5 µM
same,ED50,HLA-A*1101 [21],2.8 µM
same,iScore,HLA-A*1501 [13],0.181
QMLQSEHPF [cdr2 259-267 QMLQSEHPF],iScore,HLA-A*2402 [4],0.082
same,ED50,HLA-A*1501 [6],8.3 µM
same,t1/2,HLA-A*2402 [9],0.25
same,ED50,HLA-A*2402 [11],53 µM
same,iScore,HLA-A*1501 [13],0.257
ALFKEIFSC [cdr2 424-432 ALFKEIFSC],iScore,HLA-A*0201 [14],0.546
same,binding vs positive control,HLA-A*0201 [15],> 30%
same,ED50,HLA-A*0201 [16],30 µM
same,ED50,HLA-A*1501 [6],8.3 µM
same,iScore,HLA-A*1501 [13],0.053
same,t1/2,HLA-A*0201 [17],18.7
SQSLLEEMF [cdr2 287-295 SQSLLEEMF],iScore,HLA-A*2402 [4],0.048
same,ED50,HLA-A*1501 [6],29 µM
same,t1/2,HLA-A*2402 [9],0.24
same,ED50,HLA-A*2402 [11],14 µM
same,iScore,HLA-A*1501 [13],0.062
SSPTTPPEY [cdr2 414-422 SSPTTPPEY],iScore,HLA-A*0101 [1],0.05
same,ED50,HLA-A*0101 [2],130 µM
same,t1/2,HLA-A*0101 [3],0.96
RARALELEA [cdr2 244-252 RARALELEA],ED50,HLA-A*1501 [6],48 µM
same,ED50,HLA-B*0702 [7],14 µM
same,iScore,HLA-B*0702 [8],0.08
same,t1/2,HLA-B*0702 [10],0.47
same,iScore,HLA-A*1501 [13],0.118
